{"source": "the nanobody polyreactivity screen of Harvey et al. (2022)", "data": [{"assay": "yeast display, Sf9 membrane polyspecificity reagent, FACS + sequencing; frameworks hold sequencing errors", "procedure,_shortened": "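Galactose induction of a Saccharomyces cerevisiae BJ5465 synthetic nanobody display library ran 36–48 hours. The cells were then stained for 1 hour at 4 °C with 10% biotinylated, detergent-solubilized Sf9 membrane reagent, pulled down on streptavidin microbeads and FACS-sorted into low and high (top ~1%) gates on expression and reagent-binding fluorescence. Labels for polyreactivity follow the gate of origin.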", "values": [{"sequence": "QVQLVESGGGLVQAGGSLRLSCAASGRIFFRYAMGWYRQAPGKERELVASIRFRGGSTYYADSVKGRFTISRDNAKNTVYLQLNSLKPVDTAVYYCATPGSFTGTQRTGDYWGQGTQVTVSS", "polyreactivity (PSR sort gate)": "high polyreactivity"}, {"sequence": "QVQLVESGGGLVQAGGSLRLSCAASGSTFDYNAMGWYRQAPGKERELVAAIRWSGDTTYYADSVKGRFTISRDNAKNTVYLQRNSLKPEDTAVYYCANVPIYRYGVWAMNYWGQGTQVTVSS", "polyreactivity (PSR sort gate)": "high polyreactivity"}, {"sequence": "QVHLVESGGGIVQAGGSLRLSCAASGRTFWNYAMRWYRQAPGKERELVAVIRFSDGSTYYADSVKGRFTISRDNAKNTVYVQMNSLKPEDTAVYYCAAKGQRRWGSGFDYWGQGTQVTVSS", "polyreactivity (PSR sort gate)": "low polyreactivity"}, {"sequence": "QVKLVESGGGLVQAGGSLRLSCAASVRIFALNTMGWYREAPGKERELDAAISYRGGSTYYADSVKGRFTISRDNAKTTVYLQMNSLKPEDTAVYYCAARCYSYSRRYGYDYWGQGTQVTVSS", "polyreactivity (PSR sort gate)": "high polyreactivity"}, {"sequence": "QVQLVESGGGLVQAGGSLRLSCAASGNIFSFYAMGWNRPAPGKERELVAAINWSGGDTYYADSVKGRFTISRDNAKNTVYLQMNSLKPEDTAVYYCAAEYYYQYYPGGYDYWGQGTQVTVSS", "polyreactivity (PSR sort gate)": "high polyreactivity"}, {"sequence": "QVQLVESGGGLVQAGGSLRLSCAASGSIFRIYAMGWYRQAPGKERELVAGISKSGGSTYYADSVKGRFTISRDNAKNTVYLQMNSLKPEDTAVYYCAAGYYYFWTYDYWGQGTQVTVSS", "polyreactivity (PSR sort gate)": "low polyreactivity"}, {"sequence": "QVQLVESGGGLVQAGGSLRLSCAASGSIFAVYAMGWYRQAPGKERELVAAISSRGSSTYYADSVKGRFTISRDNAKNTVYLQMNSLIPEDTEVYYCAARPGIRSYPPGYGYWGQGTQVTVSS", "polyreactivity (PSR sort gate)": "low polyreactivity"}, {"sequence": "QVQLVESGGGIVQAGGSLRLSCAASGFTFAYYAMGWYRQAPGKERELVAAITRGGGRTFYADSVKGRFTISRDNAKNTVYLQMNSLKPEDTAVYYCAAVKDTTNSRGYGYWGQGTHVTVSS", "polyreactivity (PSR sort gate)": "high polyreactivity"}, {"sequence": "QVQLVESGGGLVQAGGSLRLSCAASGRIFGTNAMGWYRQAPGKESELVATITRGGGNTYYADSVKGRFTISRDNAKNTVYLQMNSLKQEDTAVYYCNTRRLHGWLYGYEYWGQGTQVTVSS", "polyreactivity (PSR sort gate)": "low polyreactivity"}, {"sequence": "QVHLVESGGGIDQAGGSLRLSCAASGSTFTNNTMGWYRPAPGKERELVAGITKSGGSTYYADSVKGRFTISRDNAKKTVYLQMNSLKPEDTAVYYCATSTSRRYGSRHNYWGQGTQVTVSS", "polyreactivity (PSR sort gate)": "high polyreactivity"}, {"sequence": "QVQLVESGGGLVQAGGSLRLSCAASGSTFPDNAMGWYRQAPGKERELVAAISWSGGSTNYADSVKGRFTISRDNAKNTVYLQMNSLKPEDTAVYYCNADDASHYYFRDEYWGLGTQVTVSS", "polyreactivity (PSR sort gate)": "low polyreactivity"}, {"sequence": "QVQLVESGGGLVQAGGSLRLSCAASGYIFGSNAMGWYRQAPGKDRELVAGISNNGGSTYYADSVKGRFTISRDKAKNTVYLQMNSLKPEDTAVYYCARDPNDDNSFPYDYWGQGTQVTVSS", "polyreactivity (PSR sort gate)": "low polyreactivity"}, {"sequence": "QVQLVESGGGLVQAGGSLRISSAASGRTFGPYAIGWYRQAPGKESELVAAITSSGGSTYYADSVKGRFTISRDTAKNTFYLQMNSLKPEDTAVYYCNKLYWRESPDYDYWGQGTQVTVSS", "polyreactivity (PSR sort gate)": "low polyreactivity"}, {"sequence": "QVQLVESGGGLVQAGGSLRLSCAASGSIFPRYGMGLYRQAPGKERELVAAITTGGNTYYADSVKGRFTISRDNAKNTVYLQMNSLKPEDTAVYYCNARAVTPWFGFYYWGQGTQVTVSS", "polyreactivity (PSR sort gate)": "low polyreactivity"}, {"sequence": "QVQLVESGGGLVQAGGSLRLSCAASGRIFGAYAMGWYRQAPGKERELVAAITSRGGNTYYADSVKGRFTISRDNAKNTVFLQMNSLKPEDTAVYYCAARHDTRRQYYVGQSAFDYWGQGTQVTVSS", "polyreactivity (PSR sort gate)": "low polyreactivity"}, {"sequence": "QVHLVESGGGLVQAGGSLRLSCAASGRTFIGNAMGWYRQATGKERELVAGITWSGGRSYYADSVKGRFTISRDNAKNTVYLQMNSQKPEDTAVYYCGRAGQSSRMNYWGQGTQVTVSS", "polyreactivity (PSR sort gate)": "high polyreactivity"}, {"sequence": "QVQLVESGGGLVQAGGSLRLSCAASGITLRLYAMGWYRQAPGKERELVAAISKRGGSTYYADSVKWRFTISRDNAKNTVYLQMNSQKPEDTAVYYCAADSGWEHRYDYWGQGTQVTVSS", "polyreactivity (PSR sort gate)": "high polyreactivity"}, {"sequence": "QVQLVESGGGLVQAGGSLRLSCAASGSTIEFNAMGWYRQAPGKERELVAAISGSGASTYYADSVKGRFTISRDNAKNTVYVQMNSLKPEDTAVYYCNADSLYYDYQTVDVQALDYWGQGTQVTVSS", "polyreactivity (PSR sort gate)": "low polyreactivity"}, {"sequence": "QVQLVESGGCLVQAGGSLRLSCAASGSILATNVMGWYRQSPGKESQFVAAISSGGSTNYADSVKGRFTISRDNAKYTVYLQMNSLKPEDTAVYYCATSSIWGSGRVRWVSYYYWGQGSQVTVSS", "polyreactivity (PSR sort gate)": "low polyreactivity"}, {"sequence": "QVQLVESGGGLVQAGGSLRLSCASSGRTFGFNVMGWYRQATGKERELVAAISWSGGSTYYADSVKGRFTISRDNAKNTVYLQMNILKPEDTAVYYCNAQYSQVNGYDYWGQGTQVTVSS", "polyreactivity (PSR sort gate)": "low polyreactivity"}, {"sequence": "QVQLVESGGGLVQAGGSLSLSCAASGLTFTGNAMGWYRQAPGKERELVAAISWSGGSTYYADSVKGRYTISRDNAKNTVYLQMNSLKPEDTAVYYCGDPDSRYDYWGQGTQVTVSS", "polyreactivity (PSR sort gate)": "high polyreactivity"}, {"sequence": "QVQLVESGGGLVQAGGSLRLSCAASGRIFQPNAMGWYRQAPGKERELVAAISSSGGRTYYADSVKGRFTISRDNAKNTVYLQMNSLKPEDSAVYYCNAGGYRYRSYDYWGQGTQVTVSS", "polyreactivity (PSR sort gate)": "high polyreactivity"}, {"sequence": "QVQLVESGGGLVQAGGSLRLSCAASGRILRWNAMGWYRQAPGKEREMVAAIDWRGGSTYYADSVKGRFTISRDNAKNTVYLQMNSLKPEDTAVYYCAVDYYPYEVSYVRMDYWGQGTQVTVSS", "polyreactivity (PSR sort gate)": "low polyreactivity"}, {"sequence": "QVQLVESGGGLVQAGGSLRLSCAATGSIFYFNAMGWYRKAPGKERELVADISGSGGSTYYADSVKGRFTISRDNAKNTVYLQMNSLKPEDTAVYYCAARLYLHSWWYYAYDYWGQGTQVTVSS", "polyreactivity (PSR sort gate)": "high polyreactivity"}, {"sequence": "QVQLVESGGGLVQAGGTLRLSCAASGSTFGVYAMGWYRQAPGKERELVAAIDNSGDDTYYADSVKGRFTISRDNAKNTVYLQMNSLKPEDTAVYYCAADFWDGRSTLNFWGQGTQVTVSS", "polyreactivity (PSR sort gate)": "high polyreactivity"}, {"sequence": "QVQLVESGGGLVQAGGSLRLSCAASGITFYKYVMGWYRQAPGKERELVAAISSVGSTYYADSVKGRFTISRDNAKNTVYLQMNSLKPEDTAVYYCAAKYWKWYHYGFGYWGQGTQVTVSS", "polyreactivity (PSR sort gate)": "high polyreactivity"}, {"sequence": "QVQLVESGGGLVQAGGSLRLSCAASGFTFAGYAMGWYRQAPGKERELVAPINRGGSTYYADSVKGRFTISRDNAKNTVYLQMNSLKQEDTAVYYCADRQEPGWYPDVWWEYDYWGQGTQVTVSS", "polyreactivity (PSR sort gate)": "low polyreactivity"}, {"sequence": "QVQLVESGGGLVQAGGSLRLSCAASGFTSRRYAMGWYRQAPGKERELVAAISWSGGSTYYADSVKGRFTISRDNAKNTVYLQMNSLKPEDTAVYYCAAKRYSSKRGLDYWGQGTQVTVSS", "polyreactivity (PSR sort gate)": "high polyreactivity"}, {"sequence": "QVQLVESGGGLVQAGGSLRLSCAASGFIFGYYAMGWYRQAPGKERELVAAISKIGDSTYYADSVKGRFTISRDNAKNTVYLQMNSLKPEDTAVYYCNKVVRNYPRLYGHWGQGTQVTVSS", "polyreactivity (PSR sort gate)": "high polyreactivity"}, {"sequence": "QVQLVESGGGLVQAGGSLRLSCAASGRTFYRYAMGWYRQAPGKERELVAVITSGSRTKYADSVKGRFTISRDNAKNTVYLQMNSLKPEDTAVYYCAARGLALEGKSSGEYWGQGTQVTVSS", "polyreactivity (PSR sort gate)": "high polyreactivity"}, {"sequence": "HVQLQESGGGLVQAGGSLRLSCAASGSIFQATYMGWYRPAPGKEREFVASITYGSITNYADSVKGRFTIGRDNAKDTLYLQMNSLKPEDTAVYYCAAVGRRRTTVGRYVRMDYWGQGTQVTVSS", "polyreactivity (PSR sort gate)": "low polyreactivity"}, {"sequence": "QVQLVESGGGLVQAGGSLRLSCAGSGIILYWNTMGWYRHAPGKERELVAAITWSVGRTYYADSVKGRFTISRDNAKNTVYLQMNSLKPEDTAVYYCATTFQYYWFSLYDYWGQGTQVTVSS", "polyreactivity (PSR sort gate)": "low polyreactivity"}, {"sequence": "QVQLVESGGGLVQAGGSLRLSCAASGITFYGYAMGWYRQAPGKERELVAAISESGGSTYYADSVKGRFTISRDNAKNSVYLQMNRLKEEDTAVYYCASQGYSVYWYSNYWGQCTQVTVSS", "polyreactivity (PSR sort gate)": "low polyreactivity"}, {"sequence": "QVQLVESGGGLVQAGGSLRLSCAASGFTFYYYAMGWYRQEPGKERELVAAISSRGGSTYYADSVKGRFTISRDNAKNTVYLQMNSLKREDTPVYYCAAVYKYGGATYRSTSYYYWGQGTQVTVSS", "polyreactivity (PSR sort gate)": "high polyreactivity"}, {"sequence": "QVQLVESGGGLVQAGGRLRLTCAASGSIFWSNAMGLYRQAPGKERELVAAITSGGSTYYADSVKGRFTISRDNAKNTVYLQMNSLKPEDTAVYYCAARPEVRHQYRRYDYWGQGTQVTVSS", "polyreactivity (PSR sort gate)": "low polyreactivity"}, {"sequence": "QVQLVESGGGLVQAGGRLRLSCAASGGIFRRNAMGWYRPAPGKERELVAAISRSGGRTYYADSVKGRFTISRDNAKTSVYLQMNSLKPEDTAVYYCNADYGTRAGVDYWGQGTQVTVSS", "polyreactivity (PSR sort gate)": "low polyreactivity"}, {"sequence": "QVQLVQSGGGLVQAGGSLRLSCAASGSTFPTNAMGWYRQAPGKERELVAAITSTGSTYADSVKGRFTISRDNAKNTVYLQMNSLKPEDTAVYYCAADTQWTTPYDYWGQGTQVTVSS", "polyreactivity (PSR sort gate)": "low polyreactivity"}, {"sequence": "QVQLVESGGGLVQAGGSLRLSCAASGRIFGINAMGWYRQAPGKERELVAAITWSGDGTYDADSVKGRFTISRDNAKNTVYLQMNSLKPEDTAVYYCAKQLPEISQMDYWGQGTQVTVSS", "polyreactivity (PSR sort gate)": "low polyreactivity"}, {"sequence": "QVQLVESGGGLVQAGGSLRLSCAASGSTLWYNAMGWYRQGPGKERELVASITSDGGSSTYADSVKGRFTISRDNAKYTVYLQMNSLKPEDTAVYYCAADWPIVQYDYWGQGTQVTVSS", "polyreactivity (PSR sort gate)": "low polyreactivity"}, {"sequence": "QVQLVESGGGLVQAGGSLRLSCAASGNIFNEYAMGWYRQAPGKERELVAAITWSAGSTYYADSVKGRFTISRDNAKNTVYLQMNSLKPEDTAVYYCNAEYTWHRGYDYWGQGTQVTVSS", "polyreactivity (PSR sort gate)": "low polyreactivity"}, {"sequence": "QVQVVESGGGLVQAGGRLRLSCAASGSTFKYYVMGWYRQAPGKERELVAAITRSGSTNYADSVKGRFRISRDNAKNTVYLQMNSLKPEDTAVYYCATDSLRLYGGKRDQYYWGQGTQVTVSS", "polyreactivity (PSR sort gate)": "low polyreactivity"}, {"sequence": "QVQIVESGGALVQAGCSLRLSCAASGSTFWYYVMGWYRQAPGKERELVAAISIVGSTYYADSVKGRFTLSRDNAKNTVYLQMNSLKPEDTAVYYCAADIYQYGYDYWGQGTQVTVSS", "polyreactivity (PSR sort gate)": "low polyreactivity"}, {"sequence": "QVQLVETGGGLVQAGGSLRLSCAASGRTFNVNVKGRYRQAPGKERELVAAINRRGNTYYADSVKGRFTISRDNAKNTVYLQMNSLKPEDTAVYYCAADYRRYGSYDYWGQGTQVTVSS", "polyreactivity (PSR sort gate)": "low polyreactivity"}]}]}
